Here are results for 14 variants from the supplement of paper PMC12338614.

± gives the uncertainty stated by the source.

B1: library; numbered along this chain (parent)
chain: MEVVDPQQLGMFTEGELMSVGMDTFIHRIDSTEVIYQPRRKRAKLIGKYLMGDLLGEGSYGKVKEVLDSETLCRRAVKILKKKKLRRIPNGEANVKKEIQLLRRLRHKNVIQLVDVLYNEEKQKMYMVMEYCVCGMQEMLDSVPEKRFPVCQAHGYFCQLIDGLEYLHSQGIVHKDIKPGNLLLTTGGTLKISDLGVAEALHPFAADDTCRTSQGSPAFQPPEIANGLDTFSGFKVDIWSAGVTLYNITTGLYPFEGDNIYKLFENIGKGSYAIPGDCGPPLSDLLKGMLEYEPAKRFSIRQIRQHSWFRKKHPPAEAPVPIPPSPDTKDRWRSMTVVPYLEDLHGADEDEDLFDIEDDIIYTQDFTVPGQVPEEEASHNGQRRGLPKAVCMNGTEAAQLSTKSRAEGRAPNPARKACSASSKIRRLSACKQQ

The data set covers variants of B1. The experiment in a line: STK11 functional score (HeLa growth suppression), rescaled enrichment; synonymous median = 1, nonsense median = 0 (normalised score). The following applies: with HeLa; variant type: missense. In short, it runs like this:
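HeLa cells carrying an AAVS1 landing pad received codon-optimised STK11 libraries made by codon randomisation (POPCode), integrated by Bxb1, with three regions each transfected three times. Integrants that were BFP-negative and mCherry-positive were sorted by FACS 4–5 days after electroporation and then grown for about two weeks. Tiled amplicons from gDNA were sequenced on NextSeq at ~2 million reads per tile. The functional score is a wild-type-corrected log ratio of post- to pre-selection counts, rescaled to the synonymous and nonsense medians, merged across codons and replicate transfections, and given a bootstrapped error.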
With MEVVDPQQLGMFTEGELMSVGMDTFIHRIDSTEVIYQPRRKRAKLIGKYLMGDLLGEGSYGKVKEVLDSETLCRRAVKILKKKKLRRIPNGEANVKKEIQLLRRLRHKNVIQLVDVLYNEEKQKMYMVMEYCVCGMQEMLDSVPEKRFPVCQAHGYFCQLIDGLEYLHSQGIVHKDIKPGNLLLTTGGTLKISDLGVAEALHPFAADDTCRTSQGSPAFQPPEIANGLDTFSGFKVDIWSAGVTLYNITTGLYPFEGDNIYKLFENIGKGSYAIPGDCGPPLSDLLKGMLEYEPAKRFSIRQIRQHSWFRKKHPPAEAPVPIPPSPDTKDRWRSMTVVPYLEDLHGADEDEDLFDIEDDIIYTQDFTVPGQVPEEEASHFGQRRGLPKAVCMNGTEAAQLSTKSRAEGRAPNPARKACSASSKIRRLSACKQQ [N380F], the STK11 functional score was 1.06 ± 0.12.
In the case of MEVVDPQQLGMFTEGELMSVGMDTFIHRIDSTEVIYQPRRKRAKLIGKYLMGDLLGEGSYGKVKEVLDSETLCRRAVKILKKKKLRRIPNGEANVKKEIQLLRRLRHKNVIQLVDVLYNEEKQKMYMVMEYCVCGMQEMLDSVPEKRFPVCQAHGYFCQLIDGLEYLHSQGIVHKDIKPGNLLLTTGGTLKISDLGVAEALHPFAADDTCRTSQGSPAFQPPEIANGLDTFSGFKVDIWSAGVTLYNITTGLYPFEGDNIYKLFENIGKGSYAIPGDCGPPLSDLLKGMLEYEPAKRFSIRQIRQHSWFRKKHPPAEAPVPIPPSPDTKDRWRSMTVVPYLEDLHGADEDEDLFDIEDDIIYTQDFTVPGQVPEEEASHKGQRRGLPKAVCMNGTEAAQLSTKSRAEGRAPNPARKACSASSKIRRLSACKQQ [N380K], the STK11 functional score is 1.42 ± 0.48.
For the variant MEVVDPQQLGMFTEGELMSVGMDTFIHRIDSTEVIYQPRRKRAKLIGKYLMGDLLGEGSYGKVKEVLDSETLCRRAVKILKKKKLRRIPNGEANVKKEIQLLRRLRHKNVIQLVDVLYNEEKQKMYMVMEYCVCGMQEMLDSVPEKRFPVCQAHGYFCQLIDGLEYLHSQGIVHKDIKPGNLLLTTGGTLKISDLGVAEALHPFAADDTCRTSQGSPAFQPPEIANGLDTFSGFKVDIWSAGVTLYNITTGLYPFEGDNIYKLFENIGKGSYAIPGDCGPPLSDLLKGMLEYEPAKRFSIRQIRQHSWFRKKHPPAEAPVPIPPSPDTKDRWRSMTVVPYLEDLHGADEDEDLFDIEDDIIYTQDFTVPGQVPEEEASHCGQRRGLPKAVCMNGTEAAQLSTKSRAEGRAPNPARKACSASSKIRRLSACKQQ [N380C], the STK11 functional score amounted to 1.57 ± 0.28.
Consider MEVVDPQQLGMFTEGELMSVGMDTFIHRIDSTEVIYQPRRKRAKLIGKYLMGDLLGEGSYGKVKEVLDSETLCRRAVKILKKKKLRRIPNGEANVKKEIQLLRRLRHKNVIQLVDVLYNEEKQKMYMVMEYCVCGMQEMLDSVPEKRFPVCQAHGYFCQLIDGLEYLHSQGIVHKDIKPGNLLLTTGGTLKISDLGVAEALHPFAADDTCRTSQGSPAFQPPEIANGLDTFSGFKVDIWSAGVTLYNITTGLYPFEGDNIYKLFENIGKGSYAIPGDCGPPLSDLLKGMLEYEPAKRFSIRQIRQHSWFRKKHPPAEAPVPIPPSPDTKDRWRSMTVVPYLEDLHGADEDEDLFDIEDDIIYTQDFTVPGQVPEEEASHAGQRRGLPKAVCMNGTEAAQLSTKSRAEGRAPNPARKACSASSKIRRLSACKQQ [N380A], for which the STK11 functional score was 1.51 ± 0.23.
Turning to MEVVDPQQLGMFTEGELMSVGMDTFIHRIDSTEVIYQPRRKRAKLIGKYLMGDLLGEGSYGKVKEVLDSETLCRRAVKILKKKKLRRIPNGEANVKKEIQLLRRLRHKNVIQLVDVLYNEEKQKMYMVMEYCVCGMQEMLDSVPEKRFPVCQAHGYFCQLIDGLEYLHSQGIVHKDIKPGNLLLTTGGTLKISDLGVAEALHPFAADDTCRTSQGSPAFQPPEIANGLDTFSGFKVDIWSAGVTLYNITTGLYPFEGDNIYKLFENIGKGSYAIPGDCGPPLSDLLKGMLEYEPAKRFSIRQIRQHSWFRKKHPPAEAPVPIPPSPDTKDRWRSMTVVPYLEDLHGADEDEDLFDIEDDIIYTQDFTVPGQVPEEEASHHGQRRGLPKAVCMNGTEAAQLSTKSRAEGRAPNPARKACSASSKIRRLSACKQQ [N380H], the STK11 functional score was 1.48 ± 0.38.
For the variant MEVVDPQQLGMFTEGELMSVGMDTFIHRIDSTEVIYQPRRKRAKLIGKYLMGDLLGEGSYGKVKEVLDSETLCRRAVKILKKKKLRRIPNGEANVKKEIQLLRRLRHKNVIQLVDVLYNEEKQKMYMVMEYCVCGMQEMLDSVPEKRFPVCQAHGYFCQLIDGLEYLHSQGIVHKDIKPGNLLLTTGGTLKISDLGVAEALHPFAADDTCRTSQGSPAFQPPEIANGLDTFSGFKVDIWSAGVTLYNITTGLYPFEGDNIYKLFENIGKGSYAIPGDCGPPLSDLLKGMLEYEPAKRFSIRQIRQHSWFRKKHPPAEAPVPIPPSPDTKDRWRSMTVVPYLEDLHGADEDEDLFDIEDDIIYTQDFTVPGQVPEEEASHGGQRRGLPKAVCMNGTEAAQLSTKSRAEGRAPNPARKACSASSKIRRLSACKQQ [N380G], the STK11 functional score was determined as 1.57 ± 0.31.
Regarding MEVVDPQQLGMFTEGELMSVGMDTFIHRIDSTEVIYQPRRKRAKLIGKYLMGDLLGEGSYGKVKEVLDSETLCRRAVKILKKKKLRRIPNGEANVKKEIQLLRRLRHKNVIQLVDVLYNEEKQKMYMVMEYCVCGMQEMLDSVPEKRFPVCQAHGYFCQLIDGLEYLHSQGIVHKDIKPGNLLLTTGGTLKISDLGVAEALHPFAADDTCRTSQGSPAFQPPEIANGLDTFSGFKVDIWSAGVTLYNITTGLYPFEGDNIYKLFENIGKGSYAIPGDCGPPLSDLLKGMLEYEPAKRFSIRQIRQHSWFRKKHPPAEAPVPIPPSPDTKDRWRSMTVVPYLEDLHGADEDEDLFDIEDDIIYTQDFTVPGQVPEEEASHIGQRRGLPKAVCMNGTEAAQLSTKSRAEGRAPNPARKACSASSKIRRLSACKQQ [N380I], the STK11 functional score was found to be 1.04 ± 0.29.
Consider MEVVDPQQLGMFTEGELMSVGMDTFIHRIDSTEVIYQPRRKRAKLIGKYLMGDLLGEGSYGKVKEVLDSETLCRRAVKILKKKKLRRIPNGEANVKKEIQLLRRLRHKNVIQLVDVLYNEEKQKMYMVMEYCVCGMQEMLDSVPEKRFPVCQAHGYFCQLIDGLEYLHSQGIVHKDIKPGNLLLTTGGTLKISDLGVAEALHPFAADDTCRTSQGSPAFQPPEIANGLDTFSGFKVDIWSAGVTLYNITTGLYPFEGDNIYKLFENIGKGSYAIPGDCGPPLSDLLKGMLEYEPAKRFSIRQIRQHSWFRKKHPPAEAPVPIPPSPDTKDRWRSMTVVPYLEDLHGADEDEDLFDIEDDIIYTQDFTVPGQVPEEEASHEGQRRGLPKAVCMNGTEAAQLSTKSRAEGRAPNPARKACSASSKIRRLSACKQQ [N380E], for which the STK11 functional score was 1.48 ± 0.33.
For the variant MEVVDPQQLGMFTEGELMSVGMDTFIHRIDSTEVIYQPRRKRAKLIGKYLMGDLLGEGSYGKVKEVLDSETLCRRAVKILKKKKLRRIPNGEANVKKEIQLLRRLRHKNVIQLVDVLYNEEKQKMYMVMEYCVCGMQEMLDSVPEKRFPVCQAHGYFCQLIDGLEYLHSQGIVHKDIKPGNLLLTTGGTLKISDLGVAEALHPFAADDTCRTSQGSPAFQPPEIANGLDTFSGFKVDIWSAGVTLYNITTGLYPFEGDNIYKLFENIGKGSYAIPGDCGPPLSDLLKGMLEYEPAKRFSIRQIRQHSWFRKKHPPAEAPVPIPPSPDTKDRWRSMTVVPYLEDLHGADEDEDLFDIEDDIIYTQDFTVPGQVPEEEASVNGQRRGLPKAVCMNGTEAAQLSTKSRAEGRAPNPARKACSASSKIRRLSACKQQ [H379V], the STK11 functional score turned out to be 1.46 ± 0.26.
As for MEVVDPQQLGMFTEGELMSVGMDTFIHRIDSTEVIYQPRRKRAKLIGKYLMGDLLGEGSYGKVKEVLDSETLCRRAVKILKKKKLRRIPNGEANVKKEIQLLRRLRHKNVIQLVDVLYNEEKQKMYMVMEYCVCGMQEMLDSVPEKRFPVCQAHGYFCQLIDGLEYLHSQGIVHKDIKPGNLLLTTGGTLKISDLGVAEALHPFAADDTCRTSQGSPAFQPPEIANGLDTFSGFKVDIWSAGVTLYNITTGLYPFEGDNIYKLFENIGKGSYAIPGDCGPPLSDLLKGMLEYEPAKRFSIRQIRQHSWFRKKHPPAEAPVPIPPSPDTKDRWRSMTVVPYLEDLHGADEDEDLFDIEDDIIYTQDFTVPGQVPEEEASRNGQRRGLPKAVCMNGTEAAQLSTKSRAEGRAPNPARKACSASSKIRRLSACKQQ [H379R], the STK11 functional score came to 1.36 ± 0.18.
Turning to MEVVDPQQLGMFTEGELMSVGMDTFIHRIDSTEVIYQPRRKRAKLIGKYLMGDLLGEGSYGKVKEVLDSETLCRRAVKILKKKKLRRIPNGEANVKKEIQLLRRLRHKNVIQLVDVLYNEEKQKMYMVMEYCVCGMQEMLDSVPEKRFPVCQAHGYFCQLIDGLEYLHSQGIVHKDIKPGNLLLTTGGTLKISDLGVAEALHPFAADDTCRTSQGSPAFQPPEIANGLDTFSGFKVDIWSAGVTLYNITTGLYPFEGDNIYKLFENIGKGSYAIPGDCGPPLSDLLKGMLEYEPAKRFSIRQIRQHSWFRKKHPPAEAPVPIPPSPDTKDRWRSMTVVPYLEDLHGADEDEDLFDIEDDIIYTQDFTVPGQVPEEEASSNGQRRGLPKAVCMNGTEAAQLSTKSRAEGRAPNPARKACSASSKIRRLSACKQQ [H379S], the STK11 functional score amounted to 1.55 ± 0.27.
Under MEVVDPQQLGMFTEGELMSVGMDTFIHRIDSTEVIYQPRRKRAKLIGKYLMGDLLGEGSYGKVKEVLDSETLCRRAVKILKKKKLRRIPNGEANVKKEIQLLRRLRHKNVIQLVDVLYNEEKQKMYMVMEYCVCGMQEMLDSVPEKRFPVCQAHGYFCQLIDGLEYLHSQGIVHKDIKPGNLLLTTGGTLKISDLGVAEALHPFAADDTCRTSQGSPAFQPPEIANGLDTFSGFKVDIWSAGVTLYNITTGLYPFEGDNIYKLFENIGKGSYAIPGDCGPPLSDLLKGMLEYEPAKRFSIRQIRQHSWFRKKHPPAEAPVPIPPSPDTKDRWRSMTVVPYLEDLHGADEDEDLFDIEDDIIYTQDFTVPGQVPEEEASWNGQRRGLPKAVCMNGTEAAQLSTKSRAEGRAPNPARKACSASSKIRRLSACKQQ [H379W] stands 0.788 ± 0.29; under MEVVDPQQLGMFTEGELMSVGMDTFIHRIDSTEVIYQPRRKRAKLIGKYLMGDLLGEGSYGKVKEVLDSETLCRRAVKILKKKKLRRIPNGEANVKKEIQLLRRLRHKNVIQLVDVLYNEEKQKMYMVMEYCVCGMQEMLDSVPEKRFPVCQAHGYFCQLIDGLEYLHSQGIVHKDIKPGNLLLTTGGTLKISDLGVAEALHPFAADDTCRTSQGSPAFQPPEIANGLDTFSGFKVDIWSAGVTLYNITTGLYPFEGDNIYKLFENIGKGSYAIPGDCGPPLSDLLKGMLEYEPAKRFSIRQIRQHSWFRKKHPPAEAPVPIPPSPDTKDRWRSMTVVPYLEDLHGADEDEDLFDIEDDIIYTQDFTVPGQVPEEEASTNGQRRGLPKAVCMNGTEAAQLSTKSRAEGRAPNPARKACSASSKIRRLSACKQQ [H379T], 1.31 ± 0.18.
Consider MEVVDPQQLGMFTEGELMSVGMDTFIHRIDSTEVIYQPRRKRAKLIGKYLMGDLLGEGSYGKVKEVLDSETLCRRAVKILKKKKLRRIPNGEANVKKEIQLLRRLRHKNVIQLVDVLYNEEKQKMYMVMEYCVCGMQEMLDSVPEKRFPVCQAHGYFCQLIDGLEYLHSQGIVHKDIKPGNLLLTTGGTLKISDLGVAEALHPFAADDTCRTSQGSPAFQPPEIANGLDTFSGFKVDIWSAGVTLYNITTGLYPFEGDNIYKLFENIGKGSYAIPGDCGPPLSDLLKGMLEYEPAKRFSIRQIRQHSWFRKKHPPAEAPVPIPPSPDTKDRWRSMTVVPYLEDLHGADEDEDLFDIEDDIIYTQDFTVPGQVPEEEASYNGQRRGLPKAVCMNGTEAAQLSTKSRAEGRAPNPARKACSASSKIRRLSACKQQ [H379Y], for which the STK11 functional score is 1.39 ± 0.47.
